The record followed here is the DeepSol protein solubility set.

The data set in a line: soluble on expression in E. coli; label from the status in PepcDB or PDB records.
On to “MGSDKIHHHHHHCRDELSTAGGKWVESSLRTIQTDTCTVRLSTILSDSLATSGDTVCQIGTIDDPVWGKIKAAFYAEYDVPTVSFSENADYRFDSITIRFYSSGNYLGDTLSPQRISLHSLSENLSLDEGYLYTTSKVSYHSTPLASFTFTPTPGETIREHEIRLPDEWGVEWFEHFQAGSREMESQEYFRDYFKGIAFIPEEGGNCVNGFMVNDSSLCITLYYHQTETDATELSADFLPNSDLRFNQVSCDRSRTALSSLQSGLNNGLPSEKSEHQSYLQGLTGMYINIDFPFLNDLRAEGRLVTIESALLRLYPVKGTYGKQYPLPESLTLYTADENNVTEDVVTDISGSSVQTGSLVTDEMMGEDTYYSFDITSFLQSNLGTVGYNRKILQLMLPDNLFFTTLNGVVFGDARHPDSNPVKLTLLYKTYNP”, for which the “soluble on expression in E. coli” value is listed as “not soluble”. The entry for “MNIKYSGIENRFETAILKKNGVRSGFVSFAPNLAAVKLNDYAKVRKRITKTKQKADIVIVMFHGGAEGKQAEHLPFDTEIFYGENRGNVVEFARLAVDSGADVVFGQGPHVTRAVELYRDRFISYSGGNFATYGAINTSGISGIAPIFKIITDKQGRFVSGNIIPITQVGDKIPKIDPEKTVIGRIIYLNRSDFPKGNGLDVSPDGSITRR” is “not soluble”; for “MFSQAQFNVTMAEEDRWKQWYPNMEMIVNNKGPKLIFPELNFNITGLEEKSRYVVLLSIEKYDNIRYGYRNGKWGPSKVRHATKKEQEIKYFLHPDGTKLGKELMKETIKFDTVRITNHKKFMDKDNVFFVETMHKYVPVLTVKNITNVESANHSMRMEVAQFFPVTVYNQESIGNWKSKFHKNSTYGNRLDGGNKRKNTDSSEERTSKRSKNETEIAVSDILQVASQSENYNESTNSGRLQNEISSSIHQFPSTSYQNQYPHAYPTVNTPPIYVQQFTALFDEIHNQFDPKTKQNRVAKNVQYLSSVPQFAINQKENIHQNAPDYPVSQFPNQYPYGSYPYYYPYFQSSQQFPHLNYSMNNSIYSDSSFQSSFSAENSYFDENGNPIHYPYYSSN” it is “not soluble”. The entry for “MSDNLKIGLQYLTPKHALTRLAGKLASAKMGWLTTAVIKWFIKQYNVNMDEAKNPDPEAYSTFNNFFVRELEDGARPINEDDSVISHPADACVSQFGPIMDGKLVQAKGHVYSAQELLGGDEALAAEFMGGEFATLYLSPSDYHRVHMPCDATLRKMIYVPGDLFSVNPLTAENVPNLFARNERVVCIFDTEFGPMAQILVGATIVGSIETTWAETVTPPTGPAVKTWHYPLSGDDMICFKKGEEMGRFKLGSTVINLFAPNSIKFDDSMENGTPTRMGTPFAHIVKLEHHHHHH” is “soluble”. As for “MGSDKIHHHHHHMQEIELKFLVPEPRLKGLMRQAKIKSSQVTQLAAHYYDTPDQQLAQAGIGLRIRQEGNAWVQTIKASGDGIAARLEHNLTLDNEQVQAMLDNNELLPDLTIYKDTPIAPALADFKLKKLAKQLTRLYVTDVERTTRLLIKDTGDEVVNSIEMAYDYGEIIHGTDDTQRDVIQEIEFELISGELDFLFSTAKTWCQRYKLCLSTVTKAERGGRLIKGQSHTPATAADLSELNIDKKIGMPAFLRAVVHNCLLQILPNSSAIVAGSKDNEHLLQLSIGIERLHTVLQAFDSFSDEINPDWSAILQQTATLLTEYRKLAYLSTHIEPRLQKDGAPIVDWTADIDALKITPIAAISTNHFQIMLLELIAFTMSDPSLEPQTDKLAINKLEKILVKYHEKLLKAEQYLEDRYDESDSELENESIIKALHNLHDHLKDLRYISELVAPLYGKKKTKRWLKRTVKAQKTLGQQLNMSDYQQYYQSKASSDFAALYAAGWLNAVLIPMEKATEKRLDKFYACSVFW”, the entry is “not soluble”. For the sequence “MQGVQEQIEELQTKLAFQELTVEELNQEVIKLNQLVAHQQHQIQLLIGKLQAIEPSNMATQAEETPPPHY”, the “soluble on expression in E. coli” value was “soluble”. The entry for “MDVADISKKQSILKQFEREGVKNVLFTDCLRQHDENVKKHPVIRCLMFQIVPLVSKLIESTSRFHREEERCYCLMVIGVPNVGKSSLINALRRTYLKKGKASKVGAEPGITKAVLTKIQVCERPIIHLLDTPGVLPPRIENIETGMKLALCGTVLDHLVGEDVIADFLLFSLNRLERFSYVEKYSLEEPCDDIQHVLKCIAVKLGKTRRVKAITGVGNITVQLPDYSAAAYDFIRAFRKGELGKVMLD” is “not soluble”. “MAHHHHHHMITMECITKKIKTIFQNSIQKCFPSISEDAIVTYANLKFGHYQCNNAINIYKKYGKELNYENAQKISEFIISNINETIFEEIKSSPQGFITVKLSKDYIETSLKKLFNGEKIDISININDIKESNENYGNVLVDFSSPNIAKEMHVGHLRSTIIGDSICRVFEFLKINTHRVNHVGDWGTQFGMIINYIKTHYPNFKEEMPDLSNLTSLYQESKKMYDADKEFEKSSKENAIKLQNNDEDCKFVWNKLCESSKKEFDKLYNILDIKLEYVGESFYVPMLSTVLDLLKESKLLTNIGDAICYQSENFKVPLFLQKSNGGYGYDSTDVAALYYRLTQLNCNCVIYVTDIGQLTHFETIFDLIKKTNWGDKNAKLMHVGFGFVLNEDNKKFKTRSGTTVKLINLIKEGTERAKRDLLQRIETKSEEEKSYFENVDIDQLSESLCVSAIKYFDLKQHRNSDYKFSYDNMLNVKGNTGIYIIYGYSRICSIFRKSTINVEDISKDELSLTSIYEINLGLHILKFPDIFYYILKNMLVHKLAEYMYDLTTTFTAFYENCKVLNNENEKSRLLLCSITKSLLKLCMELLGMKPIEKL”: the “soluble on expression in E. coli” value is listed as “soluble”. Turning to “MEFIGDTRIVIINPLGAKKICRLTFEQIKVIYQEVKTHFENYRIIFTGLPQDLLTIPILEIETLPFDEFIYTVALTKYSDFVISVDTALVHIAAAYHKPTLAFYPNSRTPEYPSHLIWSPNHHKSIQIVSPTYTVKDIDTETLTNSVKRLSCIDKKLEHHHHHH”, the “soluble on expression in E. coli” value is listed as “soluble”. As to “MATKEKHVRKPDWVKIKLNTNENYIGLKKLMRENRLHTVCEEAKCPNIHECWAVRRTATFMILGSVCTRACRFCAVKTGLPTELDWQEPERVAESVRIMNLKHVVVTAVARDDLKDGGAAVFAETVRAIRRKNPFTTIEVLPSDMGGVYENLKILMDARPDILNHNIETVRRLTPRVRARATYERSLEFLRRAKELQPDIPTKSSIMVGLGETKEEIIEAMDDLRANHVDILTIGQYLQPTKKHLKVVKYYHPDEFQELKEIALSKGFSHCEAGPLVRSSYHADEQVSEAAKARQLKA”, the “soluble on expression in E. coli” value is reported as “not soluble”. As for “MSLKKMMDSTTVIITTTDNRVLLQKRDENPDIEYSGYYSLVSGYLEEEETPLDGIIRELKEEFEHKKSQKVHFSSITYLGSEYRADYDRWEYIHHTYLMDDAADIRILEGESFVLLDMDECLRLENLAPHHKLFLLKYRAGLCKIDVREQSKKMFDEITVRDLIKVESVGDVKNYSLLEAGTGFVIGEDTTLSASIPAVEAAKYIGFLQFVPKVLRGNHYHFRKVEYMLILQGRMHATFQKYDDSEAVIEEIWEKGDLVRTLPGCVHTLTALGESNVLTIEFSPQPYVARDVLMNDKEGHHHHHH”, the entry is “soluble”; as for “MTTCGEFLVKQLEAWGVETVFGIPGVHTVELYRGLPGSRIRHVTPRHEQGAGFMADGYARVTGKPGVCFIITGPGMTNILTAMAQAYADSIPMLVISSVNERARLAHGNGYLHELPNQRNLVGNVCAFSHTLMSAEELPAVLARAFAVFDSERPRPVHIELPLDVITAPAEHLALRPRTVTSRPAPALAPLREAAARLRNAKKPLLLLGGGCVEAAAEARALAAALDAPTALTINAKGLLPADHPLLLGSNQSCVPVRELATEADVVLAIGTELGETDYDVVFDGGFALDGELIRIDIDPQQLMRNYTPSLAIHSDARLAMRVLLAELPGGEASPDSPGARRAAAVRQRLAEDFAGWSHYRQLFAAILAEWPDARFVGDSTQTVYSGNHLVDLDEPRRWFNASTGYGTLGYGLPAAIGAKLGEPGRPVVSLMGDGGLQFTLPELASAVEAKVGIVVLLWNNHGYGEIKRYMERREITPLGVDIYTPDFLAIARGFGCAAERARDLEHLRELLRGAPADRPLIVEVLQAAPFHP”, “not soluble”. The entry for “MAQLYFYYSAMNAGKSTALLQSSYNYQERGMRTVVYTAEIDDRFGAGKVSSRIGLSSPAKLFNQNTSLFEEIRAESARQTIHCVLVDESQFLTRQQVYQLSEVVDKLDIPVLCYGLRTDFRGELFVGSQYLLAWSDKLVELKTICFCGRKASMVLRLDQDGRPYNEGEQVVIGGNERYVSVCRKHYKDALEEGSLTAIQERHRHILEHHHHHH” is “soluble”. The entry for “MRECISIHVGQAGVQIGNACWELYCLEHGIQPDGQMPSDKTIGGGDDSFNTFFSETGAGKHVPRAVFVDLEPTVIDEVRTGTYRQLFHPEQLITGKEDAANNYARGHYTIGKEIIDLVLDRIRKLADQCTGLQGFSVFHSFGGGTGSGFTSLLMERLSVDYGKKSKLEFSIYPAPQVSTAVVEPYNSILTTHTTLEHSDCAFMVDNEAIYDICRRNLDIERPTYTNLNRLIGQIVSSITASLRFDGALNVDLTEFQTNLVPYPRAHFPLATYAPVISAEKAYHEQLSVAEITNACFEPANQMVKCDPRHGKYMACCLLYRGDVVPKDVNAAIATIKTKRTIQFVDWCPTGFKVGINYEPPTVVPGGDLAKVQRAVCMLSNTTAIAEAWARLDHKFDLMYAKRAFVHWYVGEGMEEGEFSEAREDMAALEKDYEEVGVDSVEGEGEEEGEEY” is “soluble”. Consider “MKTVLAFGDSLTWGADPATGLRHPVEHRWPDVLEAELAGKAKVHPEGLGGRTTCYDDHAGPACRNGARALEVALSCHMPLDLVIIMLGTNDIKPVHGGRAEAAVSGMRRLAQIVETFIYKPREAVPKLLIVAPPPCVAGPGGEPAGGRDIEQS”, for which the “soluble on expression in E. coli” value is “not soluble”.

As to “ASGSMQGDPDVLRLLNEQLTSELTAINQYFLHSKMQDNWGFTELAAHTRAESFDEMRHAEEITDRILLLDGLPNYQRIGSLRIGQTLREQFEADLAIEYDVLNRLKPGIVMCREKQDTTSAVLLEKIVADEEEHIDYLETQLELMDKLGEELYSAQCVSRPPTSAWSHPQFEK”, the “soluble on expression in E. coli” value is given as “soluble”. Turning to “MRAADAPDAPLPEDRRNAPVWFAHDLEAPRCTALFPRLADRRPALVVVGGFLGSGKTTFLNNCIEYHRARERFVAVIQNEVGATGVDARLMGDGAEVLALDEGCVCCSLAGSLAGGIRAITADFTPEVILLETTGLANPLNLLAELDTLRDMVRLDAVVTVVDAANIVPTLRDSDIARDQIRGADIIVCNKCDTVDETGRAALRATLTGLNGRAALHETSFGRIHPSLFMALEGERPPRGLMPAPHGTHATHADEGFAAVRLFFSGTIDEAALAPLLQQCPGAPFRIKGIVRVTDDEAPRLVQCVGARCEVERLDGGFEGTPFLVFIGRNPDETALLEHWAALGATAEPPAPQAEADTQPAQATKSASGGQSSDATRGCHDHHLEHHHHHH”, the “soluble on expression in E. coli” value was “not soluble”. Consider “MTGFAPQAGLPSHSVQVADHFDGNSPRGSPMSSGGHPVDRNRGLQPQKEAFSGPAAGKPFHPQALSKYSRHYSPEDELSAEAQPIAAYKIVSQSNKQLLAGSVSVTSLSSRTTELATADPFALAPFPSKAGKQKP”, for which the “soluble on expression in E. coli” value was “soluble”.

As for “SLIYFFMVDAVELSRKYEGKIEIYPKVPITSYNDFALIYTPGVAEVSKAIYKDPDKSFELTSRWNTIAVVTDGTRVLGLGNIGPTAAMPVMEGKSLLFKYLGGVDAIPLPINVKSADEFTNVVKALETSFGGINLEDIESPKCFYILEKLQSMLNIPVWHDDQQGTAAAILAGLINAMILTNKDPKESKVVFYGAGASNIAAARILAKYGFKYENIVMIDSKGPLYADREDVDHLMLHHKWKYELAIKTNKWEAKEIKDAFSGADAVVAASTPGPNVIKKEWISLMNKEAIVFALANPVPEIWPQDAKEAGAKIVATGRSDFPNQVNNSLIFPAIFRGVLDSRAKAITDEMTIAASEALAKYARDRGINENYIIPRMDEWEAFYEEAAAVASKAVELGLARVKKSREEFREIAKERIIRARKIMNLVISTWSPEG”, the “soluble on expression in E. coli” value is on record as “soluble”.
